The record followed here is patent US20140348832A1 (Sanofi, published 2014).

In assay [1] the target is MHCII (pMHCII) on mouse antigen presenting cells. The assay can be described thus: cell-based or functional assay.
In assay [2] the target is mouse cytotoxic T lymphocyte associated antigen-4 (CTLA-4) on activated T cells (mouse, UniProt P09793 36-223). The assay can be described thus: cell-based or functional assay.

B1: BsB, bispecific fusion protein CD80wa-LAG-3-Fc (mouse CD80w88a(aa1-235)-G9-Lag-3(aa25-260)-IgG2a(aa241-474)) (Fc fusion)
chain: VDEQLSKSVKDKVLLPCRYNSPHEDESEDRIYWQKHDKVVLSVIAGKLKVAPEYKNRTLYDNTTYSLIILGLVLSDRGTYSCVVQKKERGTYEVKHLALVKLSIKADFSTPNITESGNPSADTKRITCFASGGFPKPRFSWLENGRELPGINTTISQDPESELYTISSQLDFNTTRNHTIKCLIKYGDAHVSEDFTWGGGGGGGGGGPGKELPVVWAQEGAPVHLPCSLKSPNLDPNFLRRGGVIWQHQPDSGQPTPIPALDLHQGMPSPRQPAPGRYTVLSVAPGGLRSGRQPLHPHVQLEERGLQRGDFSLWLRPALRTDAGEYHATVRLPNRALSCSLRLRVGQASMIASPSGVLKLSDWVLLNCSFSRPDRPVSVHWFQGQNRVPVYNSPRHFLAETFLLLPQVSPLDSGTWGCVLTYRDGFNVSITYNLKVLGLEPVAPRGPTIKPCPPCKCPAPNLLGGPSVFIFPPKIKDVLMISLSPMVTCVVVDVSEDDPDVQISWFVNNVEVLTAQTQTHREDYNSTLRVVSALPIQHQDWMSGKEFKCKVNNKALPAPIERTISKPKGSVRAPQVYVLPPPEEEMTKKQVTLTCMVTDFMPEDIYVEWTNNGKTELNYKNTEPVLDSDGSYFMYSKLRVEKKNWVERNSYSCSVVHEGLHNHHTTKSFSRTPGK
For the molecule B1, the “EC50 of BsB for inducing Tregs in vitro” value in assay [1] and in assay [2] was around 100 nM each time. Besides, the “potency of BsB at inducing the production of Tregs (EC50)” value in assay [1] and in assay [2] was above 100 nM in each case.
